Experimental data reported in article PMC11250742, “Preclinical evaluation of CXCR4 peptides for targeted radionuclide therapy in glioblastoma” (EJNMMI Radiopharmacy and Chemistry, 2024).
Where a SMILES comes first, the peptide text is derived from it. Bridges are numbered along the chain shown (N, C = ends). [ ]: non-standard residue; d: D form. The star is where a group is joined. DOTA = O=C(O)CN1CCN(CC(=O)O)CCN(CC(=O)*)CCN(CC(=O)O)CC1; 2Nal = N[C@@H](Cc1ccc2ccccc2c1)C(=O)O; Cit = NC(=O)NCCC[C@H](N)C(=O)O

Key:
[1] = biological target: T1, CXCR4 (Homo sapiens, UniProt P61073); test: Saturation binding assay on U87-CXCR4 + cells; settings: 0.1–1000 nM, 4 h, 37 °C; NSB with 100 µM AMD11070; N = 2
T1 construct: expressed in transfected cells; host or cells: U87-MG (U87-CXCR4+), kept under blasticidin selection
T1 sequence (P61073 whole entry): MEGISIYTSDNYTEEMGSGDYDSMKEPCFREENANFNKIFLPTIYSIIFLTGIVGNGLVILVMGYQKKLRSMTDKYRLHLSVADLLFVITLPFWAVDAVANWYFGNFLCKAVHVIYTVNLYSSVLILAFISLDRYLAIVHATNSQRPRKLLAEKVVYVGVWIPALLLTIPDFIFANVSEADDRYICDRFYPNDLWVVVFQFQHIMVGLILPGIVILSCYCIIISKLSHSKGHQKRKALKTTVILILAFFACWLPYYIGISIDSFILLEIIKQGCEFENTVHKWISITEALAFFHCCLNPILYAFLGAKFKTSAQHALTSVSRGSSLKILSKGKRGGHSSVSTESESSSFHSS
Method: In the saturation binding assays, U87-CXCR4 + cells were seeded in 24-well plates and allowed to adhere. The night before the experiment, complete media was replaced with media containing 2% FBS. To determine the total binding, cells were treated with a mixture of each radiolabelled peptide (at final concentrations ranging from 0.1 to 1000 nM, corresponding to activity concentrations ranging from 0.005 to 50 MBq/mL) with 0.2% dimethyl sulfoxide (DMSO, vehicle). Non-specific binding (NSB) was verified by treating cells with a mixture of each radiolabelled peptide with 100 µM of AMD11070, a potent CXCR4 antagonist.
After 4 h of incubation at 37 °C and 5% CO2, the unbound fraction was collected in gamma counter tubes, and the cells were washed twice with PBS. The wash fractions were added to the same gamma counter tubes. Next, cells were lysed by incubation with 1 M NaOH for 30 min at room temperature (RT). After collecting the lysed cell fractions, two washes with 1 M NaOH were performed, and added to the same fractions, corresponding to the total bound fractions.
The activities of all collected fractions were measured in an automated gamma counter. […]
Statistical analyses and data plotting were done using GraphPad Prism 10. […] Statistical significance was evaluated with one-way ANOVA followed by post-hoc comparisons with the untreated cells using Dunnett’s test. […]

[2] = in vivo; design: species or system BALB/c nude mice; settings: mouse; for tissue uptake dose at 4 h / SUV at 4 h: BALB/c nude, iv, total radioactivity; for tissue uptake dose at 4 h: %IA
Method: For the generation of the subcutaneous GBM xenograft model, BALB/c nude mice (between 8 and 12 weeks old) were anesthetised with 2.5% isoflurane in O2 at a flow rate of 0.2 L/min and subcutaneously injected on the right shoulder with 3 × 10^6 U87-CXCR4 + cells resuspended in a 1:1 mixture of PBS and Cultrex BME (R&D Systems, Bio-Techne, Minnesota, US). Tumours were left to grow for ten days before the start of the experiment. Tumour volumes were calculated as length × width × height. Three days before the experiment, the mean tumour volumes of all mice were 255 ± 119 mm^3.
All animals were anesthetised with 2.5% isoflurane in O2 at a flow rate of 1 L/min and intravenously (IV) injected with 1.5 MBq of [^177Lu]Lu-POL3026 via a tail vein (radiolabelled with a Am of 53.1 ± 0.55 MBq/nmol). The mice were sacrificed by an overdose of pentobarbital (200 µL of 60 mg/mL) at 1-, 4-, 24- and 168 h post-injection (p.i.) (n = 3–4 per time point), followed by cardiac puncture. Organs of interest were collected in tarred tubes and weighed. The activity in the different organs was measured in the automated gamma counter described above. For the calculation of the total activity in the blood, bone, and muscle, the masses were assumed to be 7, 12 and 40% of the total body mass, respectively. Data is shown as standardised uptake value (SUV), calculated using the following equation:
SUV = [Activity in organ (cpm) / Organ weight (g)] / [(Injected activity (cpm) / Total body weight (g)].
A separate study was performed to evaluate the specificity of the uptake of [^177Lu]Lu-POL3026 in U87-CXCR4 + subcutaneous tumours and the rest of the organs. This was done by creating two groups (n = 4 / group), one group pre-injected intraperitoneally (IP) with 5 mg/kg of AMD11070, 30 min before the IV injection of [^177Lu]Lu-POL3026, while the other group was pre-injected with the DMSO vehicle. Mice from both groups were sacrificed 4 h post-injection and organs were collected as previously described.

N=C(N)NCCC[C@@H]1NC(=O)[C@@H]2CSSC[C@H](NC(=O)[C@H](Cc3ccc4ccccc4c3)NC(=O)[C@H](CCCNC(=N)N)NC(=O)[C@H](CCCNC(=N)N)NC(=O)[C@H]3CCCN3C(=O)CNC1=O)C(=O)N[C@@H](Cc1ccc(O)cc1)C(=O)N[C@@H](CCC(N)=O)C(=O)N[C@@H](CCCCNC(=O)CN1CCN(CC(=O)O)CCN(CC(=O)O)CCN(CC(=O)O)CC1)C(=O)N1CCC[C@@H]1C(=O)N1CCC[C@H]1C(=O)N[C@@H](Cc1ccc(O)cc1)C(=O)N[C@@H](CCCNC(=N)N)C(=O)N[C@@H](CCCNC(N)=O)C(=O)N2 [[^177Lu]Lu-DOTA-POL3026, metal not drawn] (cyclo(RR[2Nal]CYQK(DOTA)[dP]PYR[Cit]CRG[dP]); disulfide 4-13)
Kd [1]: 21.8 nM
tissue uptake dose at 4 h ([2]; 5 mg/kg, Blood): 0.33 %ID
tissue uptake dose at 4 h ([2]; 5 mg/kg, Blood on tissue paper): 0.97 %ID
tissue uptake dose at 4 h ([2]; 5 mg/kg, Bone): 5.16 %ID
tissue uptake dose at 4 h ([2]; 5 mg/kg, Brain): 0.01 %ID
tissue uptake dose at 4 h ([2]; 5 mg/kg, Carcass): 9.91 %ID
tissue uptake dose at 4 h ([2]; 5 mg/kg, Heart): 0.03 %ID
tissue uptake dose at 4 h ([2]; 5 mg/kg, Intestines): 1.17 %ID
tissue uptake dose at 4 h ([2]; 5 mg/kg, Kidneys): 5.44 %ID
tissue uptake dose at 4 h ([2]; 5 mg/kg, Liver): 33.8 %ID
tissue uptake dose at 4 h ([2]; 5 mg/kg, Lungs): 0.35 %ID
tissue uptake dose at 4 h ([2]; 5 mg/kg, Muscle): 1.02 %ID
tissue uptake dose at 4 h ([2]; 5 mg/kg, Pancreas): 0.02 %ID
tissue uptake dose at 4 h ([2]; 5 mg/kg, Spleen): 0.51 %ID
tissue uptake dose at 4 h ([2]; 5 mg/kg, Stomach): 0.06 %ID
tissue uptake dose at 4 h ([2]; 5 mg/kg, Tail): 3.44 %ID
tissue uptake dose at 4 h ([2]; 5 mg/kg, Tumour): 1.68 %ID
SUV at 4 h ([2]; 5 mg/kg, Blood): 0.05 SUV
SUV at 4 h ([2]; 5 mg/kg, Bone): 0.43 SUV
SUV at 4 h ([2]; 5 mg/kg, Heart): 0.06 SUV
SUV at 4 h ([2]; 5 mg/kg, Kidneys): 3.74 SUV
SUV at 4 h ([2]; 5 mg/kg, Liver): 5.76 SUV
SUV at 4 h ([2]; 5 mg/kg, Lungs): 0.57 SUV
SUV at 4 h ([2]; 5 mg/kg, Muscle): 0.03 SUV
SUV at 4 h ([2]; 5 mg/kg, Pancreas): 0.03 SUV
SUV at 4 h ([2]; 5 mg/kg, Spleen): 1.41 SUV
SUV at 4 h ([2]; 5 mg/kg, Tumour): 1.59 SUV
tissue uptake dose at 4 h ([2]; 1.5 MBq, Blood): 2.91 %ID
tissue uptake dose at 4 h ([2]; 1.5 MBq, Blood on tissue paper): 1.34 %ID
tissue uptake dose at 4 h ([2]; 1.5 MBq, Bone): 6.85 %ID
tissue uptake dose at 4 h ([2]; 1.5 MBq, Brain): 0.02 %ID
tissue uptake dose at 4 h ([2]; 1.5 MBq, Carcass): 20.3 %ID
tissue uptake dose at 4 h ([2]; 1.5 MBq, Heart): 0.16 %ID
tissue uptake dose at 4 h ([2]; 1.5 MBq, Intestines): 2.43 %ID
tissue uptake dose at 4 h ([2]; 1.5 MBq, Kidneys): 5.12 %ID
tissue uptake dose at 4 h ([2]; 1.5 MBq, Liver): 33.5 %ID
tissue uptake dose at 4 h ([2]; 1.5 MBq, Lungs): 1.23 %ID
tissue uptake dose at 4 h ([2]; 1.5 MBq, Muscle): 3.35 %ID
tissue uptake dose at 4 h ([2]; 1.5 MBq, Pancreas): 0.12 %ID
tissue uptake dose at 4 h ([2]; 1.5 MBq, Spleen): 1.74 %ID
tissue uptake dose at 4 h ([2]; 1.5 MBq, Stomach): 0.18 %ID
tissue uptake dose at 4 h ([2]; 1.5 MBq, Tail): 2.77 %ID
tissue uptake dose at 4 h ([2]; 1.5 MBq, Tumour): 3.35 %ID
SUV at 4 h ([2]; 1.5 MBq, Blood): 0.42 SUV
SUV at 4 h ([2]; 1.5 MBq, Bone): 0.57 SUV
SUV at 4 h ([2]; 1.5 MBq, Brain): 0.01 SUV
SUV at 4 h ([2]; 1.5 MBq, Heart): 0.37 SUV
SUV at 4 h ([2]; 1.5 MBq, Kidneys): 3.84 SUV
SUV at 4 h ([2]; 1.5 MBq, Liver): 6.18 SUV
SUV at 4 h ([2]; 1.5 MBq, Lungs): 2.29 SUV
SUV at 4 h ([2]; 1.5 MBq, Muscle): 0.08 SUV
SUV at 4 h ([2]; 1.5 MBq, Pancreas): 0.15 SUV
SUV at 4 h ([2]; 1.5 MBq, Spleen): 4.83 SUV
SUV at 4 h ([2]; 1.5 MBq, Tumour): 2.58 SUV
SUV, Brain ([2]; ip, 5 mg/kg): 0.00
